Data as given in publication PMC8470133, “Aptasensor for the Detection of Mycobacterium tuberculosis in Sputum Utilising CFP10-ESAT6 Protein as a Selective Biomarker”.

Biological target: T1, CFP10-ESAT6 antigen (Mycobacterium tuberculosis, UniProt P9WNK5;P9WNK7 2-100;2-95)
T1 chain 1: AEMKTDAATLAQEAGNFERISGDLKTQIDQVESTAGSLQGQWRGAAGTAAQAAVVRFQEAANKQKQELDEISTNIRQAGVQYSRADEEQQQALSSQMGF
T1 chain 2: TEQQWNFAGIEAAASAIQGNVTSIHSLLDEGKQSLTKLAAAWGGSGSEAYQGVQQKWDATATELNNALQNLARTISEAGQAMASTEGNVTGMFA
Experiment: circular dichroism; Sensor: antigen incubated 1 h at 37 °C on aptamer electrode blocked with 0.25% BSA, PBS wash; DPV in 0.1 M PBS pH 7.4; CD buffer not given
Conditions: protein: commercial; copies: 1;1; folded

B1: CapApt (CFP10-ESAT6 aptamer) (ssDNA)
DNA: GCCTGTTGTGAGCCTCCTAACCCCATCTTATACGTATATGGACTCATCTCGACCCCCGATAGGCTTGGTACATGCTTATTCTTGTCTCCC
modifications: 5'-NH2
binding result: binds
